In IntAct's records for PubMed 30241482:

B1: Protein ripply3 (Homo sapiens), P57055 (parent)
chain: MEPEAAAGARKARGRGCHCPGDAPWRPPPPRGPESPAPWRPWIQTPGDAELTRTGRPLEPRADQHTFGSKGAFGFQHPVRVYLPMSKRQEYLRSSGEQVLASFPVQATIDFYDDESTESASEAEEPEEGPPPLHLLPQEVGGRQENGPGGKGRDQGINQGQRSSGGGDHWGEGPLPQGVSSRGGKCSSSK
partner: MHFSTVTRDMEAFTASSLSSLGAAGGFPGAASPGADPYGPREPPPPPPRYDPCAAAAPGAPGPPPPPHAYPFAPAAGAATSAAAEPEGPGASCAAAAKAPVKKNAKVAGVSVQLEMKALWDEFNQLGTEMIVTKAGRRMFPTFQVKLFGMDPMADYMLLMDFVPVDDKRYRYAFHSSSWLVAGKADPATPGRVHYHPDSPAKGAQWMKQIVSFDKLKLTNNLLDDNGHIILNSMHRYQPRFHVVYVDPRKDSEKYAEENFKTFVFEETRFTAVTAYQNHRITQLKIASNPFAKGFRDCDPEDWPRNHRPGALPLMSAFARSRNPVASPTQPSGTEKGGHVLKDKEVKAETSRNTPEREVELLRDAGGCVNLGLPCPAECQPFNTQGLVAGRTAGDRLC

Variants of: B1
Conditions: with tbx1_human TBX1, O43435

effect of a mutation on the interaction	Variant
decreasing interaction strength	MEPEAAAGARKARGRGCHCPGDAPWRPPPPRGPESPAPWRPWIQTPGDAELSRTGRPLEPRADQHTFGSKGAFGFQHPVRVYLPMSKRQEYLRSSGEQVLASFPVQATIDFYDDESTESASEAEEPEEGPPPLHLLPQEVGGRQENGPGGKGRDQGINQGQRSSGGGDHWGEGPLPQGVSSRGGKCSSSK [T52S]
with no effect	MEPEAAAGARKARGRGCHCPGDAPWRPPPPRGPESPAPWRPWIQTPGDAELTRTGRPLEPRADQHTFGSKGAFGFQHPVRVYLPMSKRQEYLRSSGEQVLASFPVQATIDFYDDESTESASEAEEPEEGPPPLHLLPQEVGGRQENGPGGKGRDQGINQGQRSSGGGDHWGEGPLPQGDSSRGGKCSSSK [V179D]
with no effect	MEPEAAAGARKARGRGCHCPGDAPWRPPPLRGPESPAPWRPWIQTPGDAELTRTGRPLEPRADQHTFGSKGAFGFQHPVRVYLPMSKRQEYLRSSGEQVLASFPVQATIDFYDDESTESASEAEEPEEGPPPLHLLPQEVGGRQENGPGGKGRDQGINQGQRSSGGGDHWGEGPLPQGVSSRGGKCSSSK [P30L]
with no effect	MEPEAAAGARKARGRGCHCPGDAPWRPPPPRGPESPAPWRPWIQTPGDAELTRTGRPLEPRADQHTFGSKGAFGFQHPVRVYLPMSKRQEYLRSSGEQVLASFPVQATIDFYNDESTESASEAEEPEEGPPPLHLLPQEVGGRQENGPGGKGRDQGINQGQRSSGGGDHWGEGPLPQGVSSRGGKCSSSK [D113N]
